Source: patent US20220259289A1 (Janssen / Centocor, published 2022)
Residue numbers refer to the chain shown, from its start.

B1: ISOP120GR5P1A11 (designed binder, not shown: small tags and cut ends)
chain: LPAPKNLVVSRVTEDSARLSWTAPDAAFDSFGIPYWEWTTEGEAIQLIVPGSERSYDLTGLKPATEYHVHIVGVKGGSFSEPLPADFTT
notes: FN3 domain (Centyrin); tested as E. coli lysate
B2: ISOP120GR5P1A10 (designed binder, not shown: small tags and cut ends)
chain: LPAPKNLVVSRVTEDSARLSWTAPDAAFDSFEIPYIEVETIGEAIWLHVPGSERSYDLTGLKPGTEYSVGINGVKGGHTSNPLSARFTT
notes: as for B1
B3: ISOP120GR5P1C10 (designed binder, not shown: small tags and cut ends)
chain: B2 chain with A26G
notes: as for B1
B4: ISOP120AR5P1D2 (designed binder, not shown: small tags and cut ends)
chain: LPAPKNLVVSRVTEDSARLSWDFAYFKFDSFLIQYQESEKVGEAIVLTVPGSERSYDLTGLKPGTEYTVSIYGVGRFYTVYYSNPLSAIFTT
notes: as for B1
B5: ISOP120AR5P1C4 (designed binder, not shown: small tags and cut ends)
chain: B4 chain with D22A, A24Q, Y25W, F26H, K27I, R76Q, F77P, Y82D
notes: as for B1
B6: ISOP120AR5P1C5 (designed binder, not shown: small tags and cut ends)
chain: B4 chain with D22T, F23L, A24P, Y25N, F26I, K27H, F77H, Y82D
notes: as for B1
B7: ISOP120HR5P1A6 (designed binder, not shown: small tags and cut ends)
chain: LPAPKNLVVSRVTEDSARLSWTAPDGAFDSFEIYYLEGGRGEAIVLTVPGSERSYDLTGLKPGTEYLVTIYGIKCGWASNPLSAIFTT
notes: as for B1
B8: ISOP120GR5P1B11 (designed binder, not shown: small tags and cut ends)
chain: LPAPKNLVVSRVTEDSARLSWTAPDAAFDSFNIKYWEANLYGEAIVLTVPGSERSYGLTGLKPGTEYRVHIRGVKGGINSFPLVAVFTT
notes: as for B1
B9: ISOP120GR5P1H6 (designed binder, not shown: small tags and cut ends)
chain: LPAPKNLVVSRVTEDSARLSWTNEQITKYGFDSFLIQYQESEKVGEAIVLTVPGSERSYDLTGLKPGTEYTVSIYGVGRHYTVYDSNPLSAIFTT
notes: as for B1
B10: ISOP120AR5P1H3 (designed binder, not shown: small tags and cut ends)
chain: B9 chain with T22K, N23W, E24I, Q25S, I26H, T27E, K28P, Y29L, G30E
notes: as for B1
B11: ISOP120AR5P1G7 (designed binder, not shown: small tags and cut ends)
chain: B9 chain with T22S, N23Q, E24H, Q25Y, I26L, T27S, K28P, Y29I, G30P
notes: as for B1
B12: ISOP120AR5P1F11 (designed binder, not shown: small tags and cut ends)
chain: B9 chain with G67A
notes: as for B1
B13: ISOP120GR5P1H11 (designed binder, not shown: small tags and cut ends)
chain: LPAPKNLVVSRVTEDSARLSWTAPDAAFDSFYIAYWEYWGNGEAIGLIVPGSERSYDLTGLKPGTEYHVHIVGVKGGAGSVPLWANFTT
notes: as for B1

Legend:
Test in all cases: ELISA, bacterial lysate on plate-bound antigen, luminescence
[1] = target: T1, recombinant biotinylated human CD137 protein (Fc-fusion protein, R&D Systems 838-4B) (human, UniProt Q07011 24-186, biotinylated (site not stated))
T1 construct: Bought Fc fusion; The ELISA used the same antigen as the panning; also called CD137-Fc; biotinylated CD137; not shown: Fc part of the bought fusion protein
Description: (§1) Streptavidin-coated Maxisorp plates (Nunc catalog 436110) were blocked for 1 h in Starting Block T20 (Pierce) and then coated with biotinylated CD137 (using same antigen as in panning) or negative controls (an unrelated Fc-fused recombinant protein and human serum albumin) for 1 h. Plates were rinsed with TBST and diluted lysate was applied to plates for 1 h. Following additional rinses, wells were treated with HRP-conjugated anti-Centyrin antibody (PAB25) for 1 h and then assayed with POD (Roche catalog 11582950001).

human serum albumin = target: T2, human serum albumin (human, UniProt P02768 25-609)
T2 construct: Negative control antigen of the screening ELISA; also called HSA
T2 sequence (P02768 25-609 limits assumed): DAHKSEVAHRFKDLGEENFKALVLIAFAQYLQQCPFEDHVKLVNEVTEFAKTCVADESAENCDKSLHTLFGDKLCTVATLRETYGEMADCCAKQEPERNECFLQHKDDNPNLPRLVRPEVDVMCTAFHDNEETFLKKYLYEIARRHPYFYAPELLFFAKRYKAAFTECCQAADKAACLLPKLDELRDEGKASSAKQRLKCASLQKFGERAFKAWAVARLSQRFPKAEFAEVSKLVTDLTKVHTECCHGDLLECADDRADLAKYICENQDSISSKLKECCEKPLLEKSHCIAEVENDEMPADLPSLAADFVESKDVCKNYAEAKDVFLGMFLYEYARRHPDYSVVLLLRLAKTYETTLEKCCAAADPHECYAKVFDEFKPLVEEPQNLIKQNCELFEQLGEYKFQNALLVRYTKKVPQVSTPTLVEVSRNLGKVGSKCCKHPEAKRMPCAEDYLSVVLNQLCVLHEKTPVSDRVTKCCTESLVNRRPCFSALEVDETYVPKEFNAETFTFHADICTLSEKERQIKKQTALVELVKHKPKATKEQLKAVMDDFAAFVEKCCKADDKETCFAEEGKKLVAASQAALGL
Description: as §1

[2] = target: unrelated Fc-fused recombinant protein (negative control)

Binder	ELISA CD137-Fc (RLU) [1]	ELISA HSA (RLU) (human serum albumin)	ELISA Fc Control (RLU) [2]
B1	1.05e+06 RLU	320 RLU	480 RLU
B2	627000 RLU	400 RLU	400 RLU
B3	502000 RLU	480 RLU	240 RLU
B4	908000 RLU	640 RLU	640 RLU
B5	708000 RLU	240 RLU	320 RLU
B6	425000 RLU	160 RLU	320 RLU
B7	1.29e+06 RLU	400 RLU	640 RLU
B8	875000 RLU	160 RLU	320 RLU
B9	721000 RLU	400 RLU	400 RLU
B10	769000 RLU	480 RLU	400 RLU
B11	568000 RLU	480 RLU	560 RLU
B12	715000 RLU	320 RLU	480 RLU
B13	1.31e+06 RLU	320 RLU	640 RLU
